Measurements from patent publication US20120244144A1 (University of Texas, published 2012).

Tests used:
PTx-S1-220 Y8A = target: T1, PTx-S1-220 Y8A (Bordetella pertussis strain Tohama I, UniProt P04977 36-255, Y8A); test: Western blot (text: 1B7 was unable to bind Y8A)
T1 sequence: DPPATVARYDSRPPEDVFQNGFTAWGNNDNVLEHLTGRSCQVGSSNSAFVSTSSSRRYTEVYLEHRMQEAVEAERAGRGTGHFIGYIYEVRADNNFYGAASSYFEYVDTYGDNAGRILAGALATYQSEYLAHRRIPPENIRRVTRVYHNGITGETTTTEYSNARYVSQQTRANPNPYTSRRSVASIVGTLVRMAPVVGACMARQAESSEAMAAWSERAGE

[1] = target: T2, PTx-S1-220, truncated recombinant S1 subunit (residues 1-220) (Bordetella pertussis strain Tohama I), P04977; test: SPR; value for truncated PTx-S1-220 differs from Table 1; conditions: remark: other sources report otherwise
[2] = target: T2, PTx-S1-220, truncated recombinant S1 …; test: SPR, mAb 1B7 immobilised ~1000 RU; conditions: remark: other sources report otherwise
PTx-S1 9K/129G (1-220) = target: T3, PTx-S1 9K/129G (1-220) (Bordetella pertussis, UniProt P04977 36-255, R9K; E129G); test: SPR BIAcore 3000, mAb 1B7 immobilised ~1000 RU
T3 construct: also called R9K, E129G variant
T3 sequence: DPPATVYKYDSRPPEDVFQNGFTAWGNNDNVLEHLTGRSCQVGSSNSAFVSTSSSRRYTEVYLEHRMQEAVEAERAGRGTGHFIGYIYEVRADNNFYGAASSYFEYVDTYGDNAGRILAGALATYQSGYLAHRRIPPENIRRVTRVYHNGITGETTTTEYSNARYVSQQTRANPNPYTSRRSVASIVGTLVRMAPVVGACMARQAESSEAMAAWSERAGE

PTx-S1D (1-220) = target: T4, PTx-S1D (1-220) (Bordetella pertussis, UniProt P04977 35-254); test: SPR BIAcore 3000, mAb 1B7 immobilised ~1000 RU
T4 chain: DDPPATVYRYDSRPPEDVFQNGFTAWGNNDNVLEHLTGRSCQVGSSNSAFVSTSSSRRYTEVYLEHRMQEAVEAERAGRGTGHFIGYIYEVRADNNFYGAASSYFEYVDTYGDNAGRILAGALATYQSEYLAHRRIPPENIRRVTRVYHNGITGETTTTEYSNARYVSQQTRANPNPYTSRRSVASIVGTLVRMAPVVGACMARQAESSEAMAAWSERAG

PTx-S1A (1-220) = target: T5, PTx-S1A (1-220) (Bordetella pertussis, UniProt P04977 36-255, M194I); test: SPR BIAcore 3000, mAb 1B7 immobilised ~1000 RU
T5 sequence: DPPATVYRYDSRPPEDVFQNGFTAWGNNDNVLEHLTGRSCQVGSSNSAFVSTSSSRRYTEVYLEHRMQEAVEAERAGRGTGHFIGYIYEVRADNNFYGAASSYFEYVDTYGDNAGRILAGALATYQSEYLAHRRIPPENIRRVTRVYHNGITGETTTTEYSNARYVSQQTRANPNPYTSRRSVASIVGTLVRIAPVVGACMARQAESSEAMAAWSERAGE

[3] = target: pertussis toxin B-oligomer (Bordetella pertussis), P04978; test: SPR BIAcore 3000, mAb 1B7 immobilised ~1000 RU; conditions: remark: other sources report otherwise
[4] = target: pertussis toxin holotoxin (Bordetella pertussis), P04977; test: SPR BIAcore 3000, mAb 1B7 immobilised ~1000 RU; conditions: remark: other sources report otherwise
[5] = target: T2, PTx-S1-220, truncated recombinant S1 …; test: SPR BIAcore 3000, mAb 1B7 immobilised ~1000 RU; conditions: remark: other sources report otherwise
[6] = target: pertussis toxin holotoxin (Bordetella pertussis), P04977; test: competition ELISA (Friguet), 5 nM antibody, soluble PT; conditions: remark: other sources report otherwise
[7] = target: pertussis toxin B-oligomer (Bordetella pertussis), P04978; test: ELISA repeated with mAb 1B7; conditions: remark: other sources report otherwise

B1: monoclonal antibody 1B7 (antibody)
chain: DIQMTQSPALMSASPGEKVTMTCSASSSVSFMYWYQQKPRSSPKPWIYLTSNLPSGVPARFSGSGSGTSYSLTISSMEAEDAATYYCQQWSSHPPTFGSGTKLEIKRGGGGSGGGGSGGGGSGGGGSEVQLQQSGSELVRPGASVKLSCKASGYKFTSYWMHWVKQRPGQGLEWIGNIFPGSGSTNYDEKFNSKATLTVDTSSNTAYMQLSSLTSEDSAVYYCTRWLSGAYFDYWGQGTTLTVSSASGA
notes: also called mAb 1B7; 1B7 mAb
binding result (PTx-S1-220 Y8A): no binding | koff [1]: 0.0014 s⁻¹ | koff [2]: 0.0014 s⁻¹ | koff (PTx-S1 9K/129G (1-220)): 0.0016 s⁻¹ | koff (PTx-S1D (1-220)): 0.00095 s⁻¹ | koff (PTx-S1A (1-220)): 0.00071 s⁻¹ | koff [3]: 0.0027 s⁻¹ | koff [4]: 0.0004 s⁻¹ | koff [5]: 0.0014 s⁻¹ | Kd [6]: 1.1 nM | EC50-PTx (%) [7]: 30%
